Legend:
[1] = biological target: the molecule itself; experiment: SEC; Superdex 200 HR 10/30, room temperature; K-buffer (1 mM PIPES-TEA hydroxide pH 6.9, 1 mM EDTA, 0.5 mM DTT, 250 mM KCl); 0.25 mg/ml protein
[2] = biological target: the molecule itself; experiment: dynamic light scattering; 20°C; K-buffer (non-salt buffer plus 250 mM KCl); 0.25 mg/ml enzyme
[3] = biological target: the molecule itself; experiment: dynamic light scattering; 20°C; non-salt buffer (1 mM PIPES-TEA hydroxide pH 6.9, 1 mM EDTA, 0.5 mM DTT); 0.25 mg/ml enzyme; for SoBADH: dimers to tetramer

Row | Protein | stoichiometry N [1] | stoichiometry N [2] | stoichiometry N [3]
1 | betaine aldehyde dehydrogenase from Pseudomonas aeruginosa (enzyme, betaine aldehyde dehydrogenase (BADH, ALDH9) of Pseudomonas aeruginosa; recombinant; Homotetramer; also called PaBADH; ALDH9; source: E. coli, purified to homogeneity) MARFEEQKLYIGGRYVEASSGATFETINPANGEVLAKVQRASREDVERAVQSAVEGQKVWAAMTAMQRSRILRRAVDILRERNDELAALETLDTGKPLAETRSVDIVTGADVLEYYAGLVPAIEGEQIPLRETSFVYTRREPLGVVAGIGAWNYPVQIALWKSAPALAAGNAMIFKPSEVTPLTALKLAEIYTEAGVPDGVFNVLTGSGREVGQWLTEHPLIEKISFTGGTSTGKKVMASASSSSLKEVTMELGGKSPLIIFPDADLDRAADIAVMANFFSSGQVCTNGTRVFIHRSQQARFEAKVLERVQRIRLGDPQDENTNFGPLVSFPHMESVLGYIESGKAQKARLLCGGERVTDGAFGKGAYVAPTVFTDCRDDMTIVREEIFGPVMSILVYDDEDEAIRRANDTEYGLAAGVVTQDLARAHRAIHRLEAGICWINTWGESPAEMPVGGYKQSGVGRENGLTTLAHYTRIKSVQVELGDYASVF | 4 | – | –
2 | betaine aldehyde dehydrogenase from spinach (Spinacia oleracea) (enzyme, betaine aldehyde dehydrogenase (BADH, ALDH10) of Spinacia oleracea; recombinant; Homodimer in K-buffer; associates into tetramers in the non-salt buffer; also called SoBADH; ALDH10; source: E. coli, purified to homogeneity) MAFPIPARQLFIDGEWREPIKKNRIPVINPSTEEIIGDIPAATAEDVEVAVVAARRAFRRNNWSATSGAHRATYLRAIAAKITEKKDHFVKLETIDSGKPFDEAVLDIDDVASCFEYFAGQAEALDGKQKAPVTLPMERFKSHVLRQPLGVVGLISPWNYPLLMATWKIAPALAAGCTAVLKPSELASVTCLEFGEVCNEVGLPPGVLNILTGLGPDAGAPLVSHPDVDKIAFTGSSATGSKVMASAAQLVKPVTLELGGKSPIVVFEDVDIDKVVEWTIFGCFWTNGQICSATSRLLVHESIAAEFVDKLVKWTKNIKISDPFEEGCRLGPVISKGQYDKIMKFISTAKSEGATILYGGSRPEHLKKGYYIEPTIVTDISTSMQIWKEEVFGPVLCVKTFSSEDEAIALANDTEYGLAAAVFSNDLERCERITKALEVGAVWVNCSQPCFVQAPWGGIKRSGFGRELGEWGIQNYLNIKQVTQDISDEPWGWYKS | – | 2 | 4

Source: PMC3554688, “Potassium and Ionic Strength Effects on the Conformational and Thermal Stability of Two Aldehyde Dehydrogenases Reveal Structural and Functional Roles of K^+-Binding Sites” (PLoS ONE, 2013)
